Data: patent US20260266828A1, “BIOMARKERS FOR PREDICTING CANCER TREATMENT EFFICACY” (Arcus Biosciences, Inc., priority 2023, published 2026)

System: metastatic (Stage IV) squamous or non-squamous NSCLC
Experiment: Randomized first-line trial: zimberelimab vs domvanalimab + zimberelimab vs etrumadenant + domvanalimab + zimberelimab; cORR and PFS in ITT and biomarker selected subsets
Type: in vivo, human
Details: for Events: PFS events; for HR vs. Low: PFS; for PFS: median
Procedure: The potential treatment benefit of zimberelimab monotherapy vs. domvanalimab plus zimberelimab combination therapy vs. etrumadenant plus domvanalimab plus zimberelimab combination therapy was evaluated in 150 people as a first-line treatment for metastatic (Stage IV) squamous or non-squamous NSCLC. Participants were randomized 1:1:1 across the three study arms and treated until disease progression or loss of clinical benefit. Arm 1 received zimberelimab 360 mg IV Q3W (Arm 1=Z). Arm 2 received domvanalimab 15 mg/kg IV Q3W and zimberelimab 360 mg IV Q3W (Arm 2=DZ). Arm 3 received domvanalimab 15 mg/kg IV Q3W, zimberelimab 360 mg IV Q3W, and etrumadenant 150 mg PO QD (Arm 3=EDZ). Participants in the zimberelimab monotherapy arm (Arm 1) with confirmed progression had the option to cross over to the triplet arm (Arm 3).
EGFR and ALK mutational testing was not required for participants with squamous histology.
The co-primary endpoints for this study were objective response rate (ORR) and progression free survival (PFS). ORR was defined as the percentage of participants with a best overall response (BOR) of either compete response (CR) or partial response (PR). Participants with measurable disease at baseline who discontinued prior to their first scheduled scan were considered non-responders. PFS was defined from the time of randomization until first documentation of disease progression, or death from any cause, whichever occurred first. In addition to the co-primary endpoints, disease control rate (DCR, defined as the percentage of participants with a BOR of CR, PR, or stable disease (SD) for >6 months), duration of response (DoR, defined as the time from first documentation of disease response (CR or PR) until first documentation of confirmed progressive disease) and overall survival (OS, defined as the time from randomization until death due to any cause) were also evaluated as exploratory endpoints. Efficacy analyses were based on the intent-to-treat (ITT) population, which comprises all randomized participants.
As part of an exploratory analysis, clinical outcomes in biomarker selected subsets were investigated retrospectively. Central submission of adequate tumor tissue and central confirmation of PD-L1 status was not required for study enrollment. Thus, the number of biomarker evaluable patients (BEP) varied by biomarker and was less than the ITT population. Expression levels of CD155, CD226, and CD73 were measured in baseline tumor biopsy samples (e.g., formalin-fixed, paraffin-embedded tissue or freshly cut, serial unstained sections), along with baseline expression level of PD-L1. The baseline samples were archival tumor samples obtained ≤24 months prior to screening or fresh biopsy samples obtained prior to the first dose of treatment. PD-L1 expression level in the BEP subset was measured at a central lab using the Ventana SP263 IHC assay, while enrollment in the trial was based on PD-L1 expression ([…] TC or TPS) locally assessed by Ventana SP263 assay or PharmDx 22C3 assay. CD155, CD226 and CD73 expression levels were measured at a central lab as described in Example L. PD-L1, CD155, CD226, and CD73 expression at baseline are summarized in Table 3. The best predictive biomarker of activity in Arm 1 was CD155 (e.g., CD155 low). At least three biomarkers (e.g., PD-L1 high, CD155 high, and CD73 low) enrich for clinical activity of domvanalimab and there was an even greater enhancement in patients that fulfill two of the biomarkers (analyses not shown).
Without rescoring CD155 intensity (i.e., using the original values scored by the pathologist), expression was characterized by two different scoring algorithms—namely, % TC and % TC 2-3+. The coefficient of determination (R^2 value) was used to look at the variance between each approach and CD155 expression characterization by H-scores. While % TC 2-3+ and H-score are highly concordant (R^2 value of 0.94), less concordance was observed between % TC and H-score (R^2 value of 0.71). […]

[1] = CD155 High (2+ or 3+ % TC ≥ 40%)
[2] = CD155 Low (2+ or 3+ % TC < 40%)

B1: zimberelimab (antibody, chains of the INN, looked up, V domains shown)
VH: QLQLQESGPGLVKPSETLTLTCTVSADSISSTTYYWVWIRQPPGKGLEWIGSISYSGSTYYNPSLKSRVTVSVDTSKNQFSLKLNSVAATDTALYYCARHLGYNGRYLPFDYWGQGTLVTVSS
VL: QSALTQPASVSGSPGQSITISCTGTSSDVGFYNYVSWYQQHPGKAPELMIYDVSNRPSGVSDRFSGSKSGNTASLTISGLQAEDEADYYCSSYTSISTWVFGGGTKLTVL
notes: zimberelimab monotherapy 360 mg IV Q3W; anti-PD-1 antibody
With B1 the “Event Rate” value (BEP for CD155, unselected) was 65%, the cORR (BEP for CD155, unselected) was 32% and the cORR (CD73 High: ≥61% TC, BEP) was 42%. The cORR (CD73 Low: <61% TC, BEP) was 12%, the “Event Rate” value [1] was 82% and the cORR [1] was 18%. For the same molecule, the cORR (CD155 High: H-score ≥ 135, BEP) was 24%, the “Event Rate” value [2] was 47% and the cORR [2] was 47%. The cORR (CD155 Low: H-score < 135, BEP) was 41%, the cORR (CD226 High: ≥4% IC, BEP) was 39% and the cORR (CD226 Low: <4% IC, BEP) was 27%. The “PFS Events (%)” value (ITT population) was “(64%)”, the “PFS Median” value (ITT population) was 5.4 mos and the “PFS Events” value (ITT population, number of events, n = 50 per arm) was 32. It also gave a cORR (ITT population, planned interim analysis) of 30%, a cORR (PD-L1 High: ≥50% TC, BEP) of 33% and a cORR (PD-L1 Low: <50% TC, BEP) of 27%. The Events (CD73 High: ≥61% TC, BEP) was 68%, the Events (CD73 Low: <61% TC, BEP) was 65% and the Events (CD155 High: H-score ≥ 135, BEP) was 82%. The Events (CD155 Low: H-score < 135, BEP) was 47%, the Events (CD226 High: ≥4% IC, BEP) was 69% and the Events (CD226 Low: <4% IC, BEP) was 73%. The Events (PD-L1 High: ≥50% TC, BEP) was 67%, the Events (PD-L1 Low: <50% TC, BEP) was 60% and the “HR vs. Low” value (CD73 High (≥61% TC) vs. Low within the arm) was 0.63. For the same molecule, the “HR vs. Low” value (CD155 High (H-score ≥ 135) vs. Low within the arm) was 0.38, the “HR vs. Low” value (CD226 High (≥4% IC) vs. Low within the arm) was 0.473 and the “HR vs. Low” value (PD-L1 High (≥50% TC) vs. Low within the arm) was 1.04. The PFS (BEP for CD155, unselected) was 5.4 mo, the PFS (CD73 High: ≥61% TC, BEP) was 9.6 mo and the PFS (CD73 Low: <61% TC, BEP) was 3.5 mo. It also gave a PFS [1] of 3.5 mo, a PFS (CD155 High: H-score ≥ 135, BEP) of 3.5 mo and a PFS [2] of 9.7 mo. It also gave a PFS (CD155 Low: H-score < 135, BEP) of 9.7 mo, a PFS (CD226 High: ≥4% IC, BEP) of 5.4 mo and a PFS (CD226 Low: <4% IC, BEP) of 2.7 mo. The PFS (PD-L1 High: ≥50% TC, BEP) was 5.7 mo and the PFS (PD-L1 Low: <50% TC, BEP) was 5.4 mo.
